The record followed here is paper PMC9938351, “Structural insights into ribonucleoprotein dissociation by nucleocapsid protein interacting with non-structural protein 3 in SARS-CoV-2” (Communications Biology, 2020).

The target of one assay is MERS-CoV N protein (MERS-CoV, UniProt K9N4V7 1-411). In words: ITC. Particulars: both partners purified.
For another assay, the target named is SARS-CoV N protein (SARS-CoV, UniProt P59595 1-422). In words: ITC. As to conditions: both partners purified.
SARS-CoV N protein, sequence (P59595 whole entry): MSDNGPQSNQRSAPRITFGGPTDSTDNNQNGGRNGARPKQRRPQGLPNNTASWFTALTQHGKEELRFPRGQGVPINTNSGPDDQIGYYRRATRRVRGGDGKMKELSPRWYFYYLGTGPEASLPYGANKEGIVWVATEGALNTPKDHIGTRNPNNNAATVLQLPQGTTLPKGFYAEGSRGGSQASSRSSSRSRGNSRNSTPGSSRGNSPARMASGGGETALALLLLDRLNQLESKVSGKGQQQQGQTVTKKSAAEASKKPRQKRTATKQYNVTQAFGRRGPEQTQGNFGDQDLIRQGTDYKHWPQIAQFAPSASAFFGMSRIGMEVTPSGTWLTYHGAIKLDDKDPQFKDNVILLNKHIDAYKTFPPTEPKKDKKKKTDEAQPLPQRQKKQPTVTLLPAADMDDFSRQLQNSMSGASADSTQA

B1: MERS-CoV Ubl1 of Nsp3 (domain or fragment)
chain: APVKKVAFGGDQVHEVAAVRSVTVEYNIHAVLDTLLASSSLRTFVVDKSLSIEEFADVVKEQVSDLLVKLLRGMPIPDFDLDDFIDAPCYCFNAEGDASWSSTMIFSLHPVEC
Regarding B1, in the assay with MERS-CoV N protein, the Kd was 2300 ± 600 nM, the dH was determined as 25.5 ± 1.3 kJ/mol and the “stoichiometry N” value came out at 0.82 ± 0.02.

B2: SARS-CoV Ubl1 of Nsp3 (domain or fragment)
chain: APIKGVTFGEDTVWEVQGYKNVRITFELDERVDKVLNEKCSVYTVESGTEVTEFACVVAEAVVKTLQPVSDLLTNMGIDLDEWSVATFYLFDDAGEENFSSRMYCSFYPPD
B2: in the assay with SARS-CoV N protein, binding was characterised by a dissociation constant (Kd) of 800 ± 200 nM, the dH was -55.9 ± 1.6 kJ/mol and the “stoichiometry N” value was determined as 1 ± 0.02.

The term Kd denotes the equilibrium constant for the complex coming apart. Low values mean higher affinity, high ones lower affinity. In general, stoichiometry N refers to the number of molecules, sites or subunits per partner or assembly.
